± gives the standard deviation.

In the supplement of paper PMC10598134 one finds collision cross section data, which are given here for 58 substances.

The data set can be described thus: collision cross section of modified peptide (TIMS, N2, iRT-aligned); higher = larger / more extended gas-phase ion. A digest of the protocol: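 Synthetic peptide pools (~100 fmol/µL in 2% acetonitrile/0.1% formic acid, iRT standard spiked 1:40) were separated on a 120-min nanoflow C18 gradient at 60 °C. They were analysed on a timsTOF Pro/HT (dda-PASEF, nitrogen, ~2.4 mbar) and identified with MaxQuant. 1/K0 was calibrated with three reference ions and aligned run-wise to the median iRT peptide deviation. Collision cross section came from the Mason-Schamp equation, averaging 1–3 technical replicates of the most abundant feature per charge state.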

The mark [1] stands for this setting: charge state: 2, modification: Nitro (Y).
Where [2] appears, read: charge state: 2, modification: Phospho (Y).
[3] abbreviates: charge state: 2, modification: Citrullination (R).
Where [4] appears, read: charge state: 3, modification: Citrullination (R).
[5] abbreviates: charge state: 2, modification: Malonyl.
Setting [6] is: charge state: 3, modification: Methyl (R).
Setting [7] is: charge state: 2, modification: Dimethyl (K).
[8] abbreviates: charge state: 3, modification: Dimethyl (K).
Where [9] appears, read: charge state: 2, modification: Succinyl.
The mark [10] stands for this setting: charge state: 2, modification: Acetyl (K).
Setting [11] is: charge state: 3, modification: Acetyl (K).
Setting [12] is: charge state: 2, modification: Trimethyl (K).
Setting [13] is: charge state: 3, modification: Trimethyl (K).
The mark [14] stands for this setting: charge state: 2, modification: Crotonyl.
Setting [15] is: charge state: 3, modification: Crotonyl.
[16] abbreviates: charge state: 2, modification: Glutarylation.
The mark [17] stands for this setting: charge state: 3, modification: Glutarylation.
Setting [18] is: charge state: 3, modification: GlyGly (K).
[19] abbreviates: charge state: 2, modification: Butyryl.
The mark [20] stands for this setting: charge state: 2, modification: GlyGly (K).
Setting [21] is: charge state: 2, modification: Methyl (R).
Setting [22] is: charge state: 2, modification: Methyl (K).
[23] abbreviates: charge state: 3, modification: Methyl (K).
[24] abbreviates: charge state: 2, modification: Biotin.
[25] abbreviates: charge state: 2, modification: hydroxyisobutyryl.

Under setting [1], GYGVIFANGNR [_GY(Nitro (Y))GVIFANGNR_] registered a collision cross section of 360.58 ± 1.2 Å².

In turn, GDYDLNAVR [_GDY(Phospho (Y))DLNAVR_] returned a collision cross section under setting [2] of 348.87 ± 0.066 Å².

In the case of “SFDEVEGVFGRGGGR [_SFDEVEGVFGR(Citrullination (R))GGGR_]”, the collision cross section is 404.76 ± 0.98 Å² under setting [3] and 503.12 Å² under setting [4].

“DASTLQSQKAEGTGDAK [_DASTLQSQK(Malonyl)AEGTGDAK_]”: the collision cross section is 438.73 ± 1.8 Å² under setting [5] and 490.61 ± 1.6 Å² (charge state: 3, modification: Malonyl).

Substance “GGPGGELPRGPQAGLGPR [_GGPGGELPR(Methyl (R))GPQAGLGPR_]” showed a collision cross section under setting [6] of 497.33 ± 2 Å².

On to “SPDEAYAIAKK [_SPDEAYAIAK(Dimethyl (K))K_]”, for which the collision cross section under setting [7] was 376.23 ± 0.37 Å² and the collision cross section under setting [8] is 437.31 ± 0.63 Å².

The substance “IDLPAENSNSETIIITGKR [_IDLPAENSNSETIIITGK(Succinyl)R_]” showed a collision cross section under setting [9] of 492.62 ± 0.3 Å².

In the case of “VYIASSSGSTAIKK [_VYIASSSGSTAIK(Acetyl (K))K_]”, the collision cross section is, setting by setting: under setting [10], 414.5 ± 2.5 Å²; under setting [11], 503.2 ± 1.2 Å².

Take “VDVEVPDVSLEGPEGKLK [_VDVEVPDVSLEGPEGK(Trimethyl (K))LK_]”: the collision cross section is, setting by setting: under setting [12], 461.69 ± 0.55 Å²; under setting [13], 507.27 ± 0.86 Å².

“IHNAENIQPGEQKYEYK [_IHNAENIQPGEQK(Acetyl (K))YEYK_]” returned a collision cross section under setting [10] of 481.31 Å² and a collision cross section under setting [11] of 525.52 ± 2.1 Å².

For “SGNLTEDDKHNNAK [_SGNLTEDDK(Crotonyl)HNNAK_]”, the collision cross section by setting is: under setting [14], 426.1 Å²; under setting [15], 469.87 ± 1.6 Å².

For the substance “VFIGNLNTLVVKK [_VFIGNLNTLVVK(Dimethyl (K))K_]”, the collision cross section is, setting by setting: under setting [7], 427.12 ± 1.4 Å²; under setting [8], 478.47 ± 1.2 Å².

Turning to “SKHLQEQLNELK [_SK(Trimethyl (K))HLQEQLNELK_]”, the collision cross section reads like this: under setting [12], 417.87 Å²; under setting [13], 506.13 ± 1.6 Å².

Substance “VGVEVPDVNIEGPEGKLK [_VGVEVPDVNIEGPEGK(Formyl)LK_]” gave a collision cross section (charge state: 2, modification: Formyl) of 455.9 ± 1.7 Å².

“VLDSGAPIKIPVGPETLGR [_VLDSGAPIK(Gluratylation)IPVGPETLGR_]”: the collision cross section was 465.83 ± 1.5 Å² under setting [16] and 505.05 ± 1 Å² under setting [17].

Under setting [14], LEEVTGKLQVAR [_LEEVTGK(Crotonyl)LQVAR_] registered a collision cross section of 398.71 ± 0.79 Å².

The substance “DSINFLDHINGKK [_DSINFLDHINGK(GlyGly (K))K_]” yielded a collision cross section under setting [18] of 464.41 ± 1.6 Å².

Under setting [19], ISALQGKLSK [_ISALQGK(Butyryl)LSK_] showed a collision cross section of 358.56 ± 1.2 Å².

In the case of “IINEPTAAAIAYGLDKK [_IINEPTAAAIAYGLDK(Trimethyl (K))K_]”, the collision cross section is on record as 500.2 ± 1.5 Å² under setting [12] and 559.85 ± 0.91 Å² under setting [13].

In the case of “YIDNQVVSTKGER [_YIDNQVVST(HexNAc (ST))KGER_]”, the collision cross section was determined as 428.63 ± 0.14 Å² (charge state: 2, modification: HexNAc (ST)) and 510.94 ± 0.18 Å² (charge state: 3, modification: HexNAc (ST)).

In the case of “LQEKVESAQSEQK [_LQEK(GlyGly (K))VESAQSEQK_]”, the collision cross section worked out at 427.55 ± 1.4 Å² under setting [20] and 508.34 ± 0.87 Å² under setting [18].

For the substance SYVDTGGVSR [_SY(Phospho (Y))VDTGGVSR_], under setting [2], the collision cross section is given as 347.56 ± 0.066 Å².

As to GHYTIGK [_GHY(Nitro (Y))TIGK_], the collision cross section under setting [1] is recorded as 323.5 ± 0.72 Å².

With “AAHGRGALAEAAR [_AAHGR(Methyl (R))GALAEAAR_]”, the collision cross section reads like this: under setting [21], 401.51 ± 8.3 Å²; under setting [6], 469.45 ± 1.5 Å².

Regarding SGFGKFER [_SGFGK(Crotonyl)FER_], the collision cross section under setting [14] turned out to be 337.57 ± 1.3 Å².

In turn, PSVSTKLISK [_PSVSTK(Succinyl)LISK_] had a collision cross section under setting [9] of 355.43 ± 0.73 Å².

Substance “ASAISIKLGSSK [_ASAISIK(Methyl (K))LGSSK_]” gave a collision cross section under setting [22] of 369.46 ± 0.48 Å² and a collision cross section under setting [23] of 438.5 ± 5.9 Å².

As to GRGGAESHTFK [_GR(Methyl (R))GGAESHTFK_], the collision cross section under setting [21] worked out at 352.3 ± 2.4 Å² and the collision cross section under setting [6] was 441.34 ± 2.6 Å².

PSVSTKLISK [_PSVSTK(Biotin)LISK_]: the collision cross section under setting [24] stood at 375.49 Å².

“VNVEAPDVNLEGLGGKLK [_VNVEAPDVNLEGLGGK(Gluratylation)LK_]”: the collision cross section reads like this: under setting [16], 464.05 ± 2.1 Å²; under setting [17], 550.01 Å².

“GETASKLQSEISR [_GETASK(Trimethyl (K))LQSEISR_]” came in with a collision cross section under setting [13] of 463.43 ± 1.5 Å².

“VGVEVPDVNIEGPEGKLK [_VGVEVPDVNIEGPEGK(Methyl (K))LK_]”: the collision cross section stood at 459.11 ± 16 Å² under setting [22] and 535.61 ± 7.1 Å² under setting [23].

Regarding “GADFLVTEVENGGSLGSKK [_GADFLVTEVENGGSLGSK(Trimethyl (K))K_]”, the collision cross section under setting [13] stood at 548.47 ± 1.1 Å².

With “GFCFITYTDEEPVKK [_GFCFITYTDEEPVK(hydroxyisobutyryl)K_]”, the collision cross section under setting [25] amounted to 453.41 ± 0.8 Å².

For “TLQKQSVVYGGK [_TLQK(hydroxyisobutyryl)QSVVYGGK_]”, the collision cross section under setting [25] was determined as 398.93 ± 0.3 Å².

For “HSPTLPEPGGLRLELPLSR [_HSPTLPEPGGLR(Citrullination (R))LELPLSR_]”, under setting [4], the collision cross section is reported as 513.82 ± 1.9 Å².

With “TFGKAAGPSLSHTSGGTQSK [_TFGK(Crotonyl)AAGPSLSHTSGGTQSK_]”, the collision cross section under setting [15] is 515.47 ± 1.3 Å².

As to “AGPNASIISLKSDK [_AGPNASIISLK(Propionyl)SDK_]”, the collision cross section (charge state: 2, modification: Propionyl) is listed as 409.61 ± 0.38 Å².

“SPSDSGYSYETIGKTTK [_SPSDSGYSYETIGK(Crotonyl)TTK_]”: the collision cross section is, setting by setting: under setting [14], 455.39 ± 0.82 Å²; under setting [15], 528.2 ± 1.2 Å².

For the substance TTEETSKPK [_TTEETSK(Crotonyl)PK_], under setting [14], the collision cross section was 346.33 ± 11 Å².

As for “IHNAENIQPGEQKYEYK [_IHNAENIQPGEQK(GlyGly (K))YEYK_]”, the collision cross section under setting [18] is given as 529.6 ± 1.2 Å².

For “ITLSKHQNVQLPR [_ITLSK(Crotonyl)HQNVQLPR_]”, the collision cross section was determined as 443.04 ± 1.2 Å² under setting [14] and 519.02 ± 26 Å² under setting [15].

Consider LGNDFHTNKR [_LGNDFHTNK(Methyl (K))R_], for which the collision cross section is recorded as 368.02 ± 0.46 Å² under setting [22] and 430.67 ± 6.2 Å² under setting [23].

Take ASEALLKQLK [_ASEALLK(GlyGly (K))QLK_]: the collision cross section was 378.14 ± 0.54 Å² under setting [20] and 443.25 ± 0.74 Å² under setting [18].

Consider “ITESVAETAQTIKK [_ITESVAETAQTIK(Butyryl)K_]”, for which the collision cross section runs as follows: under setting [19], 425.5 ± 0.24 Å²; (charge state: 3, modification: Butyryl) 518.39 ± 2.7 Å².

For the substance VETFSGVYK [_VETFSGVY(Phospho (Y))K_], the collision cross section under setting [2] is on record as 345.95 ± 0.75 Å².

For the substance “SGNLTEDDKHNNAK [_SGNLTEDDK(Succinyl)HNNAK_]”, the collision cross section is 424.64 ± 1.1 Å² under setting [9] and 478.73 ± 2.5 Å² (charge state: 3, modification: Succinyl).

Regarding “LGTTPSVYGGAGGRGIR [_LGTTPSVYGGAGGR(Citrullination (R))GIR_]”, the collision cross section worked out at 423 ± 0.56 Å² under setting [3] and 500.66 ± 24 Å² under setting [4].

As for “AGRGFSLEELR [_AGR(Citrullination (R))GFSLEELR_]”, the collision cross section under setting [3] was found to be 372.54 ± 0.24 Å².

“DVNAAIAAIKTK [_DVNAAIAAIK(GlyGly (K))TK_]”: the collision cross section is, setting by setting: under setting [20], 401.67 ± 0.99 Å²; under setting [18], 465.81 ± 1.1 Å².

The substance GSLEKGSPEDK [_GSLEK(Crotonyl)GSPEDK_] displayed a collision cross section under setting [14] of 371.77 ± 0.26 Å².

For the substance FRSGNYR [_FR(Methyl (R))SGNYR_], the collision cross section runs as follows: under setting [21], 333.09 ± 1 Å²; under setting [6], 399.51 ± 0.82 Å².

On to “DYSAPVNFISAGLKK [_DYSAPVNFISAGLK(Gluratylation)K_]”, for which the collision cross section is, setting by setting: under setting [16], 441.44 ± 0.95 Å²; under setting [17], 535.69 ± 1.8 Å².

As for LGNDFHTNKR [_LGNDFHTNK(Malonyl)R_], under setting [5], the collision cross section was 378.38 Å².

“INNFSADIKDSK [_INNFSADIK(GlyGly (K))DSK_]” gave a collision cross section under setting [20] of 406.34 ± 0.36 Å² and a collision cross section under setting [18] of 465 ± 2.2 Å².

Turning to “ALASIDSKLNQAK [_ALASIDSK(Crotonyl)LNQAK_]”, the collision cross section under setting [14] was 401.19 ± 0.9 Å².

For “GLPGEPGPRGLLGPK [_GLPGEP(Hydroxyproline)GPRGLLGPK_]”, for the setting “charge state: 2, modification: Hydroxyproline”, the collision cross section was found to be 409.23 ± 0.28 Å².

As for “ITESVAETAQTIKK [_ITESVAETAQTIK(Biotin)K_]”, the collision cross section under setting [24] amounted to 443.04 ± 1.4 Å².
